In series [1] the test system is CC(C)=CCC/C(C)=C/CC/C(C)=C/CO[P@@](=O)(O)OP(=O)(O)O. In words: steady-state radiochemical kinetics. Format: biochemical, Streptomyces citricolor. Particulars: Mg2+ active site.
Substrate in the series “purified protein”: CC(C)=CCC/C(C)=C/CC/C(C)=C/CO[P@@](=O)(O)OP(=O)(O)O
Description: purified protein. The following applies: Mg2+ active site.

In the case of “germacradien-4-ol synthase (GdolS) (Streptomyces citricolor; D81E)”, in series [1], the Km stood at 0.82 ± 0.11 µM and the kcat worked out at 0.01 ± 0.0006 s⁻¹.
For “germacradien-4-ol synthase (GdolS) (Streptomyces citricolor; D84E)”, in series [1], the Km came out at 0.92 ± 0.09 µM and the kcat amounted to 0.009 ± 0.0003 s⁻¹.
On to “germacradien-4-ol synthase (GdolS) (Streptomyces citricolor; E307Q)”, for which, in series [1], the Km stood at 2.24 ± 0.16 µM and the kcat is 0.013 ± 0.0004 s⁻¹.
On to “germacradien-4-ol synthase (GdolS) (Streptomyces citricolor; Y303F)”, for which, in series [1], the Km was determined as 0.66 ± 0.12 µM and the kcat was 0.014 ± 0.006 s⁻¹.

B1: germacradien-4-ol synthase (GdolS) (Streptomyces citricolor) (protein)
chain: MSDDTSLELPFTHRRNPHQTEAADRHLEWLQRHRELAAVVSGSTYTGWDITELASLVYPESSAEDLALAADLMGFYFLFDDQFDSPLGRRPEQVALICERLSAIAHGTLTAVTSPSERAFADLWRRITLGMTDRWRARAACNWEYYFACHPAEAAGRTIGQPPDREGYLTLRRGTAAMESIFDMIERLGHFEVPQHVMHHPLFRQLRQLAADIPSFTNDVRSFAQESERGDVANLVMIVRRDRCCSTEEACAVVWDEAQRMADRFCDLRDQLPDACRSMSLDPAQRLAAERYADGMALWLAGYLHWESHTRRYHHG
Consider B1, for which, in “purified protein”, the Km came to 1.07 ± 0.13 µM, the kcat worked out at 0.079 s⁻¹ and the kcat/Km was determined as 73800 M⁻¹ s⁻¹.

The values are drawn from article PMC4829482.
